Test results as given in a protein production outcome set (Wang et al. 2014).

Test: label from the status in PepcDB records

## MSSLFNVNAQFWASLIDSPLKILVHILDIAIVSWLIYKFIKALAGTKVMSLVQGVVLFVLFKFVAEFLGFTTIAFLMNQVITYGVIAGVVIFAPEIRSGLERFGRTPQSFIQRQQLSDDEKLVAAFVKAVAYMSPRKIGALVSIEETQTLREYIATGIPLDADISGELLINIFIPNTPLHDGAVIVEGNKIAVSCAYLPLSESSHISKEFGTRHRAAIGLSEASDAFTFVVSEETGAISVAYKGDFIHDLSLEAFEVLLREHFIKEEPKKKNWMKQFFGGRHHV
  protein production: failed

## MQPVEASDYWELARLSQPAVSPTGDRVAYVRTTAERDGDTGQETASVHVAPVGGGGSRRFTAADGTDAEPAWSPTGDRLAFVSTRGDAGGGRPQLWVVPVDGGEATRITDVIGGVSNIAWGPDGDRVAFLQAVRPAERAEELDREHDGEYERDTPDPRVIDRQMYRGHTSYRDGARRHVYVADLAAGRVDRVTAGVAECGGPAWGDDGTLYYPIRRGLDADDRLEWAIEAATPADSADSTVVTTVEGMGPTLAVHGSRVAYTTTPADDPTLTQTAVEVFDRDTGATDRLTDGVDRTVAERTAGHAPEWGPDGEHLYVCTPDEGGYVLRRVAADTGDDRVVLAGDRHVHAFSVSADAVAVVQSEWDHPGEVVAATPMGGEEVTLTRANRDYLDERAVSKPESVWIDGPAGDIQGWVLTPPEFDPEETYPLVVNVHGGPHLMWSAAGTMWHEFQTLAARGYVVFWCNPRGSTGYGQEWLRAVERDWGAVTLADVMAGVAAVTDRDYVDADNAFITGGSFGGFMTGWAVGHTDAFAGAVAQRGVYDLTGFYGTTDAYALVEGEFDTDPVRDNAFLWAQSPAAHTDAVDTPTLLVHSEADYRTPANTAELFYRLLKKHGVDTRLVRYPGEGHDLSRSGDPGHVVDRIERIAAWFDGYSDHHEAAPVLETDRPGAAADE
  protein production: failed

## MRIDIVTIFPACLDPLRQSLPGKAIESGLVDLNVHDLRRWTHDVHHSVDDAPYGGGPGMVMKAPVWGEALDEICSSETLLIVPTPAGVLFTQATAQRWTTESHLVFACGRYEGIDQRVVQDAARRMRVEEVSIGDYVLPGGESAAVVMVEAVLRLLAGVLGNPASHQDDSHSTGLDGLLEGPSYTRPASWRGLDVPEVLLSGDHARIAAWRREVSLQRTRERRPDLSHPD
  protein production: failed

## VWAHYEEQPVEEVMPVLEEKERSASYKPVFVTEITDDLHFYVQDVETGTQLEKLMENMRNDIASHPPVEGSYAPRRGEFCIAKFVDGEWYRARVEKVESPAKIHVFYIDYGNREVLPSTRLGTLSPAFSTRVLPAQATEYAFAFIQVPQDDDARTDAVDSVVRDIQNTQCLLNVEHLSAGCPHVTLQFADSKGDVGLGLVKEGLVMVEVRKEKQFQKVITEYLNAQESAKSARLNLWRYGDFRADDADEFGYSR
  protein production: failed

## MGCGFSRQHVVKTNVSSFDRELLDLKIQRDSLQQYEQRLSDSLKNYIKLARRLVAENQRQQALVVLQVKHALQKSIEKAQNMRFNLEQVLSEIELKQIETDYVLKLRTGTKLLQSIQKTLSIEEIEHLLEETKEAIEFQNKVTEVLGSFSLMEIDESCEEELEQLETAMFPPVPKRLEKTMTPQVTENMQVKSETAKEYSKQESILLPS
  protein production: not failed

## MEVKKVLVSAFLLTTCLMSGQAQRRNEIQVPDLDGYTTLKCDFHMHSVFSDGLVWPTVRVDEAYRDGLDAISLTEHIEYRPHKQDVVSDHNRSFDLCREQAEKLGILLIKGSEITRAMAPGHFNAIFLSDSNPLEQKDYKDAFREAKKQGAFMFWNHPGWDSQQPDTTKWWPEHTALYQEGCMHGIEVANGHLYMPEAIQWCLDKNLTMIGTSDIHQPIQTDYDFEKGEHRTMTFVFAKERSLQGIREALDNRRTAAYFHELLIGREDLLRPFFEKCVKIEEVSRNEQGVTLSITNVTDLVLKLKKTAHDTLLVYFRDMTLKPHTRYTVRIGFKQGIKGGDVNFEVTNFIVAPDKGLKYTISL
  protein production: failed

## MAVQRVQETQRHSSRVLVPQHAGQFHPVGLRHLSTGPGLHRRSVLRSARVLAKSSIDQPPGQHAQGAVMLRTPFSPRLEGWLLVALAVLLIGAGLGMRQPQNVDEERFLGVALEMLQNGSWFVPHRAAEIYADKPPLFMWTVAFFIWLTGSPNIALYLPGLLSAGTITAVLYDLGNRLWERRIGRYAALLFLATYQTYSILRTGQIDSFLCLWVALGFYGLVRHLLLGPAWGWFYFSCAAMGLGIISKGVGFVPALMLIPYAYAVRKNWHGVVRMPGQAARWALGLLVTLIACCLWLVPMVISVVRDGGPEGFAYLHEILLHQTANRYASAWDHREPFWYFLVNVIPQYWLPLVFALPWLIPAWRRQLSKQDGRVLVLLGWVLLVLLFFSLSSGKRKLYIFPALPGLVLVAAPLVPWLLRRWFRERVLARRIVPTIVVVWLALWFARGFIEPVVEGENPHKELMEQAAEVTHGADLVLVNWREGHWLYARQPMVHFGFAHALANERAASWLREHPGTFALVPGELLANCFLPEKAHPLGKTSRADWFLVDAQADNGVCRPERPPEVYRFAWKQNAQ
  protein production: failed

## MSHTKPSIAILGAGRVGSSLARSAVAAGYEVKVAGSGAVDKIALTAEILMPGAVPSTADQAVKDADIVFLAVPLHKFRSVNPATLEGKIVIDTMNHWVPVNGELEEIDQDPRSTSEIIAEFFAGSTMVKSFNHIGYHEIEQDAGTGRAIAYATDDVDAGAQVAQLIKSFGFVPLNIGALENGRILEPGQEAFGAHLNKDSRLELVNQR
  protein production: failed

## MFDTKIAVILRDDLAVWQKLNVTAFLMSGIVAQTGEIIGEPYRDGAGNVYNPLSIQPIVVMATDQEALRKIHQRSLERDITTSLYIEEMFATGHDAANRQVFSHFSPDTAKVVGMALRADRKIVDKITKGAKLHA
  protein production: not failed

## MKVYVVVPTYNESDNIVALMEKILAQRDNIHVLVVDDNSPDGTGEIAARMSSDNPRIHVLRRSGKMGLGSAYCDGFRVALRDGADFIIEMDADFSHDPATIPALLAATDKYDVVVGSRYLNGVSVVNWPIRRLMLSYFASVYTRFVTGLALRDCTSGFKCFRRRVIESVDLDTIRSDGYSFQIEMNYRCVERGFRVGEIPIIFIDRHAGSSKMSKKIVREAVLMVWKLKLGSLVKKLTRRGDRHAALEHHHHHH
  protein production: not failed

## TGQDAYGQVTEMQYVVYAFSKVETIFSDMYAFAALKTDGSVVTWGYSDYGGDSSSVAGQLTSGVKVIDSTSSAFAAIKEDGSVVTWGDSPYGGDSSSVAGKLTSGVKVIYSNSSAFAAVKQDGSVVTWGSYGGDSSSVAGQLTSGVKVIYSTDSEFGAFAAVKEDGSVVTWGNSPYGGDSSSVAGQLTSGVKVIYSTNNAFAAVKEDGSVVTWGDSGAGGDSSSVAGQLT
  protein production: failed

## MFLVTGVFVSVRHERTGTGTTARESVQRITWFGTLRDDGVALVMPLSDRMLPTGIIREVPEERFLEEFMPDQATYEEHFRETAESLRGRLQLASTLPTDLYPEERILLDALSALLHGRSAAKPVDADIPAVLELLAHGQEGRSAGAFQTRLSGAAVDYRRQGDYPRALLFYDRALTMQGQEDRLLFNVARVHYEMGELAEAETCLKRALESNPALEEAGRFLAFLQKTTLQPQAGDE
  protein production: failed

## MFAVPYHQHLWRIKLALIAQNHLQLIIEVGIILYAAMVFILNLAPMSLSMVLFICIVLGIGFNIIFGLDVVALFMSFGQSEFTHPFGPIALLVTVSSLAALAIMEESGVDVRGLRGFVYLLMAGITLFGGLMHRSFLLLWLLGLFMGLFIISKSMRQRSLITVKRVAGFALIAVAGFGGLELISRVLGMTVLSPLLRIERLETFSLPSMKLVIKNTTLLGHNPMSSYWGELSSGFADGYISLPLQLILFFGLPFPVFYGILVNKKDVIDYMVPGVFGWAYDFGYITMFFLLIWCVGIIIMGLRMLSIYRERRENGSRSYLGREVLLTGALAAFMSQAIIGLFVINRTINGTALLTFIFLSSLIFANSVGLKE
  protein production: failed

## MGISNWQPTMRAACWMSGALVSLLAMAVATRELSAHVSVFQILFFRSACGLLIIVPLVWRAGWRKVATARPGLHVLRNATHFLAQYGWVYGIAFIPMAEVFAIEFTVPVWTALLAAVLLGERLTAARLLAVALGLAGVFVIVRPGSGMIHPAALAVLLGAVAFALAYIMTKMLARTETPLCILFYMTLVQLPLGLAPALANWSSPPPHVWPWILVVGTMGLATHYCLARAMALADATVVVPLDFLRLPLIAVVGAVFYGEAIEPLLFLGAGMILAGNLYSILAERRRPAMPRAARDGSH
  protein production: failed

## MKLLIISDGHGDLEKLKKIKPVADGVDALIFGGDFAAFKKIETGAPFLNELLKIHKNIFAVLGNCDEPEFEKKLKDASVSITGEVKNFEGLIFAGSGGGSKFTGTTPYERTDEELVKDLTDAFEKANITAAGNLVLVCHNPPHGAKVDKVAPMVHVGSKGITAFIEKHKPLLVVSGHIHESFAVDKIGETVLVNPGALMEGRYALAEITKNEKGFKVSVELKTLD
  protein production: failed

## MDKEQRNIVVFNASKRELFTSSSGYKSLQKKLRAQWKIQSIKEELTLEKLQGVKLWITAGPREKFTAAELEVLKQYLDSGGALLVMIGEGGELKYDTNINFLLEEFGIMVNNDAVIRNVYYKYFHPKEALVSNGVLNREISRAAGKVVTGVIDEENTGNNSQALTFVYPYGATLNVMKPAVAILSTGSVCFPLNRPVLAFHHSKNAGKLAVLGSCHMFSDQYLDKEENSRIMDVVFQWLTTDSIHLNQIDAEDPEITDYMMLPDTGSLSERLRVCLQEGDENPRDFTSLFDMSLLKLHTNTLPSVLDAYKQLNVKHEALQLITPQFETPLPPLQPAVFQPAFRDLPPPMLDLFDLDETFSSEKVRLAQLSNKCTDDDLEFYVRKCGDILGVTGNLDKDKRDAKHILEHVFFQVVEFKKLNEEHDVDTAEARFSMY
  protein production: not failed

## MTHTITIVGLGNYGIDELPLGIYRFLEKESKVYARTLNHPVINTLKKEIEFESFDSIYEAHDRFEDVYEAIVTSLIELAQSEDIVYAVPGHPRVAETTTVKLLEYSHFNKDISVKVLGGKSFIDDIFEAVDVDPNDGFTLLDGTSLKESALNVRTNTVITQVYSVMIAADLKLTLMERYPDDFNVKIITGSHSDGAHVIECPLYEIDRYDDYFNNLTSLFIPKINEDTLLYQDFDYAVQTIDLLVDNEKGCPWDKVQTHDSLKRYLLEETFELFEAIDNEDDWHMIEELGDILLQVLLHSSIGKKEGYIDIKEIIESLNTKMIHRHPHIFGNAHVTSQEDLKDIWSRAKEKEGKVPRVKFEKVFADHFLKLYDKTKNRQFDEDDLKQFLQQGEKNS
  protein production: failed

## HTETGNIWTHLLGFVLFLFLGILTMLRPNMYFMAPLQEKVVFGMFFLGAVLCLSFSWLFHTVYCHSEKVSRTFSKLDYSGIALLIMGSFVPWLYYSFYCSPQPRLIYLSIVCVLGISAIIVAQWDRFATPKHRQTRAGVFLGLGLSGVVPTMHFTIAEGFVKATTVGQMGWFFLMAVMYITGAGLYAARIPERFFPGKFDIWFQSHQIFHVLVVAAAFVHFYGVSNLQEFRYGLEGGCTDDTLL
  protein production: failed

## MIALAASSLGNTPIASFNRHFRFRLHPRNPLIQAAVSPSSSSSSPTASSGFDLSSLESAINKKDSNGVKEALDKLSEEGWAKKWSSQPYLSRRTTSLRELTTLGIKNAETLAIPSVRNDAAFLFTVVGSTGFIAVLAGQLPGDWGFFVPYLVGSISLVVLAVGSVSPGLLQAAISGFSTFFPDYQERIAAHEAAHFLGTLEKFKSFDSKVAYLIGLPILGYSLDIGKEHVNLIDERLAKLIYSGKLDSKELDRLAAVAMAGLAAEGLKYDKVIGQSADLFSLQRFINRSQPKISNEQQQNLTRWAVLYSASLLKNNKTIHEALMAAMSKNASVLECIQTIETAS
  protein production: failed
